# Where a chain is given by its changes, count along the chain named. Ends that are not written are not given here. * marks the point of attachment. DOTA = O=C(O)CN1CCN(CC(=O)O)CCN(CC(=O)*)CCN(CC(=O)O)CC1
# T1: Recombinant human integrin αvβ6 (human), P06756
# T1 chain 1: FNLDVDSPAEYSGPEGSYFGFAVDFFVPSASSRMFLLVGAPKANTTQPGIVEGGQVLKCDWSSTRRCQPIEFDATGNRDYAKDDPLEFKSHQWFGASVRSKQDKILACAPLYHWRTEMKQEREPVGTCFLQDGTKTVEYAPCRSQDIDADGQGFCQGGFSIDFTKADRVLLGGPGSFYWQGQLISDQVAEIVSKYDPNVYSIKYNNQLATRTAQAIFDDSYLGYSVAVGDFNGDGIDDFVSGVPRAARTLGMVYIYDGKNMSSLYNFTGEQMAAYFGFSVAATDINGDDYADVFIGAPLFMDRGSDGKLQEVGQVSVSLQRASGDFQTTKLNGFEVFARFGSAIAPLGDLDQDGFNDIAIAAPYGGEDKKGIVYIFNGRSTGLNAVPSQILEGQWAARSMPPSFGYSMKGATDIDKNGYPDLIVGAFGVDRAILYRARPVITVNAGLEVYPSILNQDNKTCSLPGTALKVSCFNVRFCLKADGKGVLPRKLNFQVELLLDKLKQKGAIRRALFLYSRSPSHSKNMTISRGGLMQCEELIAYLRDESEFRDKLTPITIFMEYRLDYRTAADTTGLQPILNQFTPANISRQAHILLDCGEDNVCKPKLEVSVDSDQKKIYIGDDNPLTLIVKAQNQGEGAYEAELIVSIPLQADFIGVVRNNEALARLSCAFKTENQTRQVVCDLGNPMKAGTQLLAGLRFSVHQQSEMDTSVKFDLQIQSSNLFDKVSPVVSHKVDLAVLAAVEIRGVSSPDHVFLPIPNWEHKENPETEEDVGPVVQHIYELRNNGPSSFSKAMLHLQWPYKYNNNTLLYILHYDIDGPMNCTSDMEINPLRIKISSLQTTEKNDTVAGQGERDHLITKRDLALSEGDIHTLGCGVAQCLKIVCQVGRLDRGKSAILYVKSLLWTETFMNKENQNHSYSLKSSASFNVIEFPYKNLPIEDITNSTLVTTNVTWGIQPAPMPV
# T1 chain 2: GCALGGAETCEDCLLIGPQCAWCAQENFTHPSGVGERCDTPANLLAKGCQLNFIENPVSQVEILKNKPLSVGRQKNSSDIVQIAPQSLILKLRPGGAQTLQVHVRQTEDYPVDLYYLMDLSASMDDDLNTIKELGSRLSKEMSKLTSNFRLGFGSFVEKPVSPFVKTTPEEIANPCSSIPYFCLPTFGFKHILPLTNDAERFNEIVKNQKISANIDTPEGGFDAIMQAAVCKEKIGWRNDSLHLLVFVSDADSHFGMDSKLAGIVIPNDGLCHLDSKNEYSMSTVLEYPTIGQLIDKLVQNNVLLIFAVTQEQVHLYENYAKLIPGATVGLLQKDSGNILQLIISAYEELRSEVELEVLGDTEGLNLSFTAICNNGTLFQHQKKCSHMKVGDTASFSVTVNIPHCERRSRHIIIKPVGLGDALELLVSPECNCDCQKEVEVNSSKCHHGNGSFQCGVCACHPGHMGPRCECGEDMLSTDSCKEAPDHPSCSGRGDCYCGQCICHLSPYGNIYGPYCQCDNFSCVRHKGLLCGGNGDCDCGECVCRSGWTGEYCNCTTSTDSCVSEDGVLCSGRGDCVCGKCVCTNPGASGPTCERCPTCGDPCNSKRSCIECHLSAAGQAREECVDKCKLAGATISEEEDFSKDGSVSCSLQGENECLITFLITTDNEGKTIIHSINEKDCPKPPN
# B1: S01 (peptide)
# peptide: GCILNMRTDLGTLLFRCSSDSDCLAECICLENGFCG
# notes: It says only that activity '1' was tested in the S0 scaffold; also called activity '1' in the S0 scaffold
# B2: R02 (peptide)
# peptide: GCRSLARTDLDHLRGRCRRDSDCPGACICRGNGYCG
# notes: also called activity '2' in the R0 scaffold
# B3: R12 (peptide)
# peptide: B2 peptide with S21R
# notes: also called activity '2' in arginine-rich scaffold R1
# B4: R03 (peptide)
# peptide: B2 peptide with S4L, L5V, A6F
# notes: also called activity '3' in the R0 scaffold
# B5: R32 (peptide)
# peptide: B2 peptide with S21R, P24R
# notes: also called activity '2' in arginine-rich scaffold R3
# B6: E12 (peptide)
# peptide: B2 peptide with R30E
# notes: also called activity '2' in glutamic acid-rich scaffold E1
# B7: R22 (peptide)
# peptide: B2 peptide with P24R
# notes: also called activity '2' in arginine-rich scaffold R2
# B8: E42 (peptide)
# peptide: B2 peptide with R18E, R19E, R30E
# notes: also called activity '2' in glutamic acid-rich scaffold E4
# B9: S02 (peptide)
# peptide: GCRSLARTDLDHLRDRCSSDSDCLAECICLENGFCG
# modifications: disulfide (positions not given here); not fully specified (bridges); also: three disulfide bonds, places not given here
# notes: also called activity '2' in the S0 scaffold
# B10: S03 (peptide)
# peptide: B9 peptide with S4L, L5V, A6F, D15G
# notes: It says only that activity '3' was tested in the S0 scaffold; The chain is composed here from the loop of R03 and the scaffold of S02, and the residue limits were counted by me; also called activity '3' in the S0 scaffold
# Tests used:
# [1] = target: T2, Recombinant human integrin αvβ6 (human, UniProt P06756 31-992; P18564 22-707); assay: flow cytometry, peptide displayed on yeast, soluble integrin αvβ6
# T2 construct: Bought soluble heterodimer; also called alpha-v-beta-6; avb6
# [2] = target: Recombinant human integrin αvβ3 (human, UniProt P06756 31-992; P05106 27-718); assay: flow cytometry, peptide displayed on yeast, soluble integrin (FIG. 1C)
# [3] = target: Recombinant human integrin αvβ5 (human, UniProt P06756 31-992; P18084 24-719); assay: as above
# [4] = target: Recombinant human integrin α5β1 (human, UniProt P08648 42-995; P05556 21-728); assay: as above
# [5] = target: T3, Native integrin αvβ6 on cells (BxPC-3, A431) (human, UniProt P06756 31-1048; P18564 22-788); assay: cell uptake assay with radiolabeled peptide (FIG. 5)
# T3 construct: whole, on cells; The cells also carry other integrins; also called integrin αvβ6 expressing cells; target expressing cells
# [6] = target: T2, Recombinant human integrin αvβ6; assay: flow cytometry, 10 nM integrin αvβ6, relative to R02
# [7] = target: T2, Recombinant human integrin αvβ6; assay: binding of scrambled peptide to soluble integrin αvβ6, normalised to R02 at 1 nM (FIG. 3A)
# [8] = target: T2, Recombinant human integrin αvβ6; assay: flow cytometry of yeast-displayed grafts with integrin αvβ6 (data not shown)
# [9] = target: T1, Recombinant human integrin αvβ6 …; assay: cell sorting study, peptide expressed on the surface of yeast
# [10] = target: T2, Recombinant human integrin αvβ6; assay: as above
# Chain of Recombinant human integrin αvβ5 (P18084 24-719, one chain of several): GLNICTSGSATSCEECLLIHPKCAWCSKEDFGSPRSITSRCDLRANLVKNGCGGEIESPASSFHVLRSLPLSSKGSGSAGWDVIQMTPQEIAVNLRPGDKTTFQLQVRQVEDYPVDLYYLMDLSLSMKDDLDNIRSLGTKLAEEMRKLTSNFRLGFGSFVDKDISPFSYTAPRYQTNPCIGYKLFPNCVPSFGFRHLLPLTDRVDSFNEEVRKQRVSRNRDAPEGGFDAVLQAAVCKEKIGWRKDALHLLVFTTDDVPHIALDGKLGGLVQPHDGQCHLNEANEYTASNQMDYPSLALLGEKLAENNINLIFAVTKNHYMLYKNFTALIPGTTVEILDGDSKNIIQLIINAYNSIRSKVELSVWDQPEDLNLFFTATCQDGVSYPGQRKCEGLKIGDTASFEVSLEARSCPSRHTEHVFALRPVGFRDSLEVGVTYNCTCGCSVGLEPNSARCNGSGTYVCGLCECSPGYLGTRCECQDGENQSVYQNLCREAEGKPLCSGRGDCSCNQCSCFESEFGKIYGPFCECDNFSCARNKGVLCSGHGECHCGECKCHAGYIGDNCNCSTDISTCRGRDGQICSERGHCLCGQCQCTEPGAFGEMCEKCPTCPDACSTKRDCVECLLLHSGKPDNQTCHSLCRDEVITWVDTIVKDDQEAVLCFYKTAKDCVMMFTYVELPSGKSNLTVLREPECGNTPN
# Chain of Recombinant human integrin α5β1 (P08648 42-995, chain 1 of 2): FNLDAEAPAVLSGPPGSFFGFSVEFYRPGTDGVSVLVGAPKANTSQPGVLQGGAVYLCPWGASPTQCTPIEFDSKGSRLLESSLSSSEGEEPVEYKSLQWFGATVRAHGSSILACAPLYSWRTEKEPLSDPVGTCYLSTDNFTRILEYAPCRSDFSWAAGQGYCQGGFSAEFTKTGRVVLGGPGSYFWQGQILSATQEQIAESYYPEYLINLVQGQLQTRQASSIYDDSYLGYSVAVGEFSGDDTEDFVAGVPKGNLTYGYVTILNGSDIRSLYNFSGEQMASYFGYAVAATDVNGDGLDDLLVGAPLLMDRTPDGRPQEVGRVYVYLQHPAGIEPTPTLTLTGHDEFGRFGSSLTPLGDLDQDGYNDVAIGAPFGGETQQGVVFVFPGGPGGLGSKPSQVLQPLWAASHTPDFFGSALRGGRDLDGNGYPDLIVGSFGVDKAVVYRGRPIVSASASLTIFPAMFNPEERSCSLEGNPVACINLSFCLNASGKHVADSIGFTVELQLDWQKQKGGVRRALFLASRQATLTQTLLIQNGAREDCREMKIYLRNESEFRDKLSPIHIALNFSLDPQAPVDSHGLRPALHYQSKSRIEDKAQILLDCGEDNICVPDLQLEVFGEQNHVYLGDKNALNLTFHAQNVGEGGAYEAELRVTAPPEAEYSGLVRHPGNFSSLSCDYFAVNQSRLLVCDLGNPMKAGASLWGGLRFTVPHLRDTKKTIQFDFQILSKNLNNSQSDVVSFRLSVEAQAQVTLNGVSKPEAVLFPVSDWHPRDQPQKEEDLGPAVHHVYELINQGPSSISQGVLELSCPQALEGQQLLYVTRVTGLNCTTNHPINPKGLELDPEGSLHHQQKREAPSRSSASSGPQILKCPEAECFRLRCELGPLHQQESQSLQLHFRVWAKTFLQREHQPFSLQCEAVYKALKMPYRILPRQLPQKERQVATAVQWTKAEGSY
# Chain of Recombinant human integrin α5β1 (P05556 21-728, chain 2 of 2): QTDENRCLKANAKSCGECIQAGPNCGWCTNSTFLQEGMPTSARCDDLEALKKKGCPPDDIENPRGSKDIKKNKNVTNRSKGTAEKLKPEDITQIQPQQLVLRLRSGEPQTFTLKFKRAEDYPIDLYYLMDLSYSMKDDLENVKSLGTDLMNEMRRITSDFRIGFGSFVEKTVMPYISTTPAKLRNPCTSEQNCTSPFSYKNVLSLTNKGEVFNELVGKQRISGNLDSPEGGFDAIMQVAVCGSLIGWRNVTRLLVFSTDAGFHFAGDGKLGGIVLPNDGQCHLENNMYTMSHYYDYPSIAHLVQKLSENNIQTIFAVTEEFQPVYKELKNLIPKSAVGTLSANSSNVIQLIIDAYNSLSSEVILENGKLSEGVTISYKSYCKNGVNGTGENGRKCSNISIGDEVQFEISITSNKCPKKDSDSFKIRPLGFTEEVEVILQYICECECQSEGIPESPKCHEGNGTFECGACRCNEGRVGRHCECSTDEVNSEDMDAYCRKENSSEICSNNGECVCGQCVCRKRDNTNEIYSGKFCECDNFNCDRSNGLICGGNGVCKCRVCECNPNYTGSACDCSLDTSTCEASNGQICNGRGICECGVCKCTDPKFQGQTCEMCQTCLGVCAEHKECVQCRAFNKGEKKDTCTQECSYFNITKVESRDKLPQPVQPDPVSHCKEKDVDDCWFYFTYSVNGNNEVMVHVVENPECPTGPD
# Chain of Recombinant human integrin αvβ3 (P05106 27-718, one chain of several): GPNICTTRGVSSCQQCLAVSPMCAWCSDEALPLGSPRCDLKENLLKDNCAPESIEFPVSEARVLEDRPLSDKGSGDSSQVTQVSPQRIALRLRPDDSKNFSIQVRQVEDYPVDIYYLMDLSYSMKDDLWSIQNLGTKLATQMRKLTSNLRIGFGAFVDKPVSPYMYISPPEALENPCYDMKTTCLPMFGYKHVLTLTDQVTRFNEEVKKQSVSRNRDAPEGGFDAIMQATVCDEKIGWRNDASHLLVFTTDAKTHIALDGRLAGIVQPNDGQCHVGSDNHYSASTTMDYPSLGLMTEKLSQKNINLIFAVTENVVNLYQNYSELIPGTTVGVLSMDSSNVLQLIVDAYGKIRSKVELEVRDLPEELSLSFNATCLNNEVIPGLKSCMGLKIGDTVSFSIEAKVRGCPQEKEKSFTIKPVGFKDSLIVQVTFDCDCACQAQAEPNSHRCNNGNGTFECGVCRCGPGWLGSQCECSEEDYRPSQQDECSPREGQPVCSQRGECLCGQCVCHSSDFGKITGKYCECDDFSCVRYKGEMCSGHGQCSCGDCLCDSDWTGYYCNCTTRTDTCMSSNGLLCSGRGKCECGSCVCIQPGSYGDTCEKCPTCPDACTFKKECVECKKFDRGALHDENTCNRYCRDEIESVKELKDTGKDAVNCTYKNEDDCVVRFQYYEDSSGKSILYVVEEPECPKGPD
binder,measurement,setting,value
B1,Kd,[1],6.5 nM
same,binding result,[2],no binding
same,binding result,[3],no binding
same,binding result,[4],no binding
"{DOTA}-GCRSLARTDLDHLRGRCRRDSDCPGACICRGNGYCG (cysteine pairing not given here; also: 64Cu complex of DOTA, also called 64Cu-DOTA-labeled R02) [64Cu-DOTA-R02]",binding result,[5],binds
B2,Kd,[1],3.2 nM
same,binding result,[2],no binding
same,binding result,[3],no binding
same,binding result,[4],no binding
B3,binding result,[6],binds
B4,Kd,[1],3.6 nM
same,binding result,[2],no binding
same,binding result,[3],no binding
same,binding result,[4],no binding
B5,binding result,[6],binds
B6,binding result,[6],binds
B7,binding result,[6],binds
B8,binding result,[6],binds
B9,Kd,[1],6 nM
same,binding result,[2],no binding
same,binding result,[3],no binding
same,binding result,[4],no binding
B10,Kd,[1],3.1 nM
same,binding result,[2],no binding
same,binding result,[3],no binding
same,binding result,[4],no binding
GCRSLARDTLDHLRDRCSSDSDCLAECICLENGFCG (also called scrambled S02) [scS02],binding result,[7],no binding (tested: 100 nM and 300 nM integrin αvβ6)
GCGGHPRTDLASLAKRCRRDSDCPGACICRGNGYCG (also called graft 3) [G3],binding result,[8],binds
GCILNRRTDLGTLLFRCRRDSDCPGACICRGNGYCG (modifications not checked) [MΔR],Kd,[9],0.95 nM
GCILNMRTDLGTLLFRCRRDSDCPGACICRGNGYCG (also called wild-type R01; wt) [R01],Kd,[10],1.07 nM
same,Kd,[1],3.6 nM
same,binding result,[4],no binding
GCILNGRTDLGTLLFRCRRDSDCPGACICRGNGYCG (modifications not checked) [MΔG],Kd,[9],1.24 nM
GCILNWRTDLGTLLFRCRRDSDCPGACICRGNGYCG (also called R01 tryptophan substitution) [MΔW],Kd,[10],1.69 nM
GCILNMRDTLGTLLFRCRRDSDCPGACICRGNGYCG (also called scrambled R01) [scR01],binding result,[7],no binding (tested: 100 nM and 300 nM integrin αvβ6)
GCGHPRTDLASLAKRCRRDSDCPGACICRGNGYCG (also called graft 2) [G2],binding result,[8],binds
